Measurements taken from patent US20240018256A1 (JUNO THERAPEUTICS, published 2024).

Columns and labels:
human CD19 [1] = molecular target: T1, human CD19 (human, UniProt P15391 20-556); test: flow cytometry, scFv titrated on CD19-expressing K562 cells (FIG. 4, one plate)
T1 sequence: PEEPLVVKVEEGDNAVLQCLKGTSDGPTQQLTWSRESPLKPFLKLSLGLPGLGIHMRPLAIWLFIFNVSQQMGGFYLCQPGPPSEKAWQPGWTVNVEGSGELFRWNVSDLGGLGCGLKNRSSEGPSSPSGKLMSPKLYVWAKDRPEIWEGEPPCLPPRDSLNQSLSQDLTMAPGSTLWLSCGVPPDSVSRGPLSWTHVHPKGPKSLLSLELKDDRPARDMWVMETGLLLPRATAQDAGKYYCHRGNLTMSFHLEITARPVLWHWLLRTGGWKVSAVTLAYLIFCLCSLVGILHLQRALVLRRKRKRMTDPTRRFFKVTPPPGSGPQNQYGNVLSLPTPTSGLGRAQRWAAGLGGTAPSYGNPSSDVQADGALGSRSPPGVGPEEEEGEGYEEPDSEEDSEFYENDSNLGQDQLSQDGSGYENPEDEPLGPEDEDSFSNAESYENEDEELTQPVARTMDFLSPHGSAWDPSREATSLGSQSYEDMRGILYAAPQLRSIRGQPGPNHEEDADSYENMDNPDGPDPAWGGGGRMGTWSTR

human CD19 [2] = molecular target: T1, human CD19; test: flow cytometry competition for binding with FMC63, summary (n = 2)
human CD19 [3] = molecular target: T1, human CD19; test: flow cytometry, scFv titrated on CD19-expressing K562 cells (FIG. 3A)
human CD19 [4] = molecular target: T1, human CD19; test: flow cytometry on CD19-expressing cells (n = 5)
human CD19 [5] = molecular target: T1, human CD19; test: flow cytometry on CD19-expressing cells, summary
human CD19 [6] = molecular target: T1, human CD19; test: flow cytometry competition for binding with FMC63 (n = 2)
human CD19 [7] = molecular target: T1, human CD19; test: flow cytometry, HIS-tagged scFv bacterial supernatant on CD19-transfected HEK293 cells (FIG. 8C)
Text: A third scFv library was generated by shuffling the VH sequences from the selection in (a) with the VL sequences resulting from the selection in (b). […] Binding by the selected scFv clones to CD19-expressing cells was confirmed by flow cytometry using bacterially-produced supernatant. The selected scFv pools were cloned into E. coli expression vectors and produced as HIS-tagged scFvs. Binding of individual clones to CD19-transfected HEK293 cells was detected with anti-HIS-Alexa647 conjugate by flow cytometry.

human CD19 [8] = molecular target: T1, human CD19; test: flow cytometry on CD19-expressing cells (n = 4)
human CD19 [9] = molecular target: T1, human CD19; test: flow cytometry competition for binding with FMC63 (n = 6)
human CD19 [10] = molecular target: T1, human CD19; test: flow cytometry, in vitro-translated FLAG-tagged scFv on CD19-expressing vs mock transfected K562 cells (FIG. 8D)
human CD19 [11] = molecular target: T1, human CD19; test: flow cytometry, scFv titrated on CD19-expressing K562 cells (FIG. 3B)
human CD19 [12] = molecular target: T1, human CD19; test: flow cytometry competition with labeled FMC63 IgG on CD19-expressing cells (FIG. 5B)
Procedure: (§1) Competition binding assays were performed to assess competition of various antibodies for binding to CD19-expressing cells.

human CD19 [13] = molecular target: T1, human CD19; test: flow cytometry, scFv titrated on CD19-expressing K562 cells (FIG. 4, another plate)
human CD19 [14] = molecular target: T1, human CD19; test: flow cytometry on CD19-expressing cells, summary (n = 7)
human CD19 [15] = molecular target: T1, human CD19; test: flow cytometry competition for binding with FMC63, summary (n = 3)
Procedure: as §1

human CD19 [16] = molecular target: T1, human CD19; test: flow cytometry on CD19-expressing cells, summary (n = 5)
human CD19 [17] = molecular target: T1, human CD19; test: flow cytometry competition for binding with FMC63, summary (n = 1)
human CD19 [18] = molecular target: T1, human CD19; test: flow cytometry on CD19-expressing cells (n = 7)
Text: (§2) Various clones were titrated and their binding affinity (EC50) to various CD19-expressing cells assessed by flow cytometry.

human CD19 [19] = molecular target: T1, human CD19; test: flow cytometry competition for binding with FMC63 (n = 3)
human CD19 [20] = molecular target: T1, human CD19; test: flow cytometry, scFv titrated on CD19-expressing K562 cells (FIG. 3C)
human CD19 [21] = molecular target: T1, human CD19; test: flow cytometry on CD19-expressing cells, summary (n = 1)
human CD19 [22] = molecular target: T1, human CD19; test: flow cytometry competition for binding with FMC63 (n = 1)
human CD19 [23] = molecular target: T1, human CD19; test: flow cytometry on CD19-expressing cells (n = 1)
Text: as §2

human CD19 [24] = molecular target: T1, human CD19; test: flow cytometry on Ramos cells; probe concentration said to be about its EC50
human CD19 [25] = molecular target: T1, human CD19; test: flow cytometry competition for binding with FMC63

B1: Clone 17 scFv (scFv)
scFv: EVQLVESGGGLVQPGRSLRLSCAASGFTFDDYAMHWVRQAPGKGLEWVSGISWNSGRIGYADSVKGRFTISRDNAKNSLFLQMNSLRAEDTAVYYCARDQGYHYYDSAEHAFDIWGQGTMVTVSSGGGGSGGGGSGGGGSQSALTQPASVSGSPGQSITIFCTGTSSDVGGYNYVSWYQQLPGTAPKLLIYSNNQRPSGVPDRFSGSKSGTSASLAISGLRSEDEADYYCAAWDDSLSVVFGGGTKLTVL
notes: Human scFv, VH-(G4S)3-VL
EC50 (human CD19 [1]): 0.00832 µM
IC50 (human CD19 [2]): 0.0354 µM
EC50 (human CD19 [3]): 0.0149 µM
EC50 (human CD19 [4]): 0.0116 µM
EC50 (human CD19 [5]): 0.0117 µM
IC50 (human CD19 [6]): 0.0354 µM

B2: Clone 448 scFv (scFv)
scFv: QVQLVESGGGLVQPGRSLRLSCAASGFTFDDYAMHWVRQAPGKGLEWVSGISWNSGRIGYADSVKGRFTISRDNAKNSLFLQMNSLRAEDTAVYYCARDQGYHYYDSAEHAFDIWGQGTVVTVSSGGGGSGGGGSGGGGSQSALTQPASVSGSPGQSITISCTGTSSDLGGYNYVSWYQHRPGKAPKLIIYDVTVRPSGVSDRFSGSKSGNTASLTISGLQAEDEADYYCGSYTSSSTLLWVFGGGTKLDIK
notes: HIS- or FLAG-tagged
binding result (human CD19 [7]): binds

B3: Clone 440 scFv (scFv)
scFv: QVQLVESGGGLVQPGRSLRLSCAASGFTFDDYAMHWVRQAPGKGLEWVSGISWNSGRIGYADSVKGRFTISRDNAKNSLFLQMNSLRAEDTAVYYCARDQGYHYYDSAEHAFDIWGQGTVVTVSSGGGGSGGGGSGGGGSQSALTQPASVSGSPGHSITISCTGTRSDVGGFDYVSWYQHNPGKAPKLIIYDVTKRPSGVSNRFSGAKSGITASLTISGLQAEDEADYYCTSYRPGPTFVFGTGTKLDIK
notes: HIS- or FLAG-tagged
binding result (human CD19 [7]): binds

B4: Clone 488 scFv (scFv)
scFv: EVQLVQSGGGLVQPGRSLRLSCAASGFTFDDYAMHWVRQAPGKGLEWVSGISWNSGSIGYADSVKGRFTISRDNAKNSLYLQMNSLRAEDTAVYYCARDQGYHYYDSAEHAFDIWGQGTVVTVSSGGGGSGGGGSGGGGSEIVLTQSPATLSLSPGETATLSCRASQSINHYLAWYQQKPGQAPRLLIYDASNRATGIPARFSGSGSGTDFTLTISSLEPEDFATYYCQQSYSHPRMYTFGQGTKLDIK
notes: Human scFv
EC50 (human CD19 [8]): 0.0029 µM
IC50 (human CD19 [9]): 0.0061 µM

B5: Clone 213 scFv (scFv)
scFv: QVQLVQSGGGVVQPGRSLRLSCAASGFTFDDYAMHWVRQAPGKGLEWVSGISWNSGSIGYADSVKGRFTISRDNAKNSLYLQMNSLRAEDTAVYYCARDQGYHYYDSAEHAFDIWGQGTVVTVSSGGGGSGGGGSGGGGSEIVLTQSPATLSLSPGETATLSCRASQSINHYLAWYQQKPGQAPRLLIYDASNRATGIPARFSGSGSGTDFTLTISSLEPEDFATYYCQQSYSHPRMYTFGQGTKLEIK
binding result (human CD19 [10]): binds

B6: Clone 18 scFv (scFv)
scFv: EVQLVESGGGLVQPGRSLRLSCAASGFTFDDYAMHWVRQAPGKGLEWVSGISWNSGRIGYADSVKGRFTISRDNAKNSLFLQMNSLRAEDTAVYYCARDQGYHYYDSAEHAFDIWGQGTVVTVSSGGGGSGGGGSGGGGSQSALTQPRSVSGFPGQSVTISCTGTTSDDVSWYQQHPGKAPQLMLYDVSKRPSGVPHRFSGSRSGRAASLIISGLQTEDEADYFCCSYAGRYNSVLFGGGTKLTVL
notes: Human scFv, VH-(G4S)3-VL
EC50 (human CD19 [1]): 0.00479 µM
EC50 (human CD19 [11]): 0.0071 µM
EC50 (human CD19 [3]): 0.00379 µM
IC50 (human CD19 [12]): 0.024 µM
EC50 (human CD19 [13]): 0.00311 µM
EC50 (human CD19 [14]): 0.0041 µM
IC50 (human CD19 [15]): 0.0201 µM

B7: Clone 18B scFv (scFv)
scFv: EVQLVESGGGLVQPGRSLRLSCAASGFTFDDYAMHWVRQAPGKGLEWVSGISWNSGRIGYADSVKGRFTISRDNAKNSLFLQMNSLRAEDTAVYYCARDQGYHYYDSAEHAFDIWGQGTVVTVSSGGGGSGGGGSGGGGSQSALTQPRSVSGFPGQSVTISCTGTTSDDVSWYQQHPGKAPQLMLYDVSKRPSGVPHRFSGSRSGRAASLIISGLQTEDEADYFCSSYAGRYNSVLFGGGTKLTVL
notes: Clone 18 with cysteine to serine at Kabat position 89 of VL; also called germline variant of clone 18
EC50 (human CD19 [16]): 0.0054 µM
EC50 (human CD19 [11]): 0.0093 µM
IC50 (human CD19 [17]): 0.028 µM
EC50 (human CD19 [18]): 0.0049 µM
IC50 (human CD19 [19]): 0.0329 µM

B8: Clone 76 scFv (scFv)
scFv: EVQLVESGGGLVQPGRSLRLSCAASGFTFDDYAMHWVRQAPGKGLEWVSGISWNSGRIGYADSVKGRFTISRDNAKNSLFLQMNSLRAEDTAVYYCARDQGYHYYDSAEHAFDIWGQGTVVTVSSGGGGSGGGGSGGGGSQSVLTQPPSVSAAPGQEVTISCSGSSSNIGNNYVSWYQQLPGTAPKLLIYDNDKRPSGIPDRFSGSKSGTSATLGITGLQTGDEADYYCGTWDGNLSAVFGGGTKVTVL
notes: Human scFv, VH-(G4S)3-VL
EC50 (human CD19 [11]): 0.0079 µM
IC50 (human CD19 [2]): 0.0182 µM
EC50 (human CD19 [20]): 0.0088 µM
EC50 (human CD19 [4]): 0.007 µM
EC50 (human CD19 [5]): 0.00804 µM
IC50 (human CD19 [6]): 0.0182 µM

B9: Clone 5 scFv (scFv)
scFv: EVQLVESGGGLVQPGRSLRLSCAASGFTFDDYAMHWVRQAPGKGLEWVSGISWNSGRIGYADSVKGRFTISRDNAKNSLFLQMNSLRAEDTAVYYCARDQGYHYYDSAEHAFDIWGQGTMVTVSSGGGGSGGGGSGGGGSSYELTQDPAVSVALGQTVRITCQGDSLRSYYASWYQQKPGQAPVLVIYDKNNRPSGIPDRFSGSSSGNTASLTITGAQAEDEADYYCNSRDSSGNNWVFGGGTKLTVL
notes: Human scFv, VH-(G4S)3-VL
EC50 (human CD19 [1]): 0.0158 µM
IC50 (human CD19 [17]): 0.05 µM
EC50 (human CD19 [21]): 0.0158 µM
IC50 (human CD19 [22]): 0.05 µM
EC50 (human CD19 [23]): 0.0158 µM

B10: SJ25C1 IgG1 (antibody, V domains shown)
VH: EVKLQQSGAELVRPGSSVKISCKASGYAFSSYWMNWVKQRPGQGLEWIGQIYPGDGDTNYNGKFKGQATLTADKSSSTAYMQLSGLTSEDSAVYFCARKTISSVVDFYFDYWGQGTTVTVSS
VL: DIELTQSPKFMSTSVGDRVSVTCKASQNVGTNVAWYQQKPGQSPKPLIYSATYRNSGVPDRFTGSGSGTDFTLTITNVQSKDLADYFCQQYNRYPYTSGGGTKLEI
notes: Murine IgG1, FITC-labeled in the assay; also called FITC-labeled SJ25C1
EC50 (human CD19 [24]): ~0.0005 µM

B11: Clone 835 scFv (scFv)
scFv: EVQLVESGGGLVQPGRSLRLSCAASGFTFDDYAMHWVRLAPGKGLEWVSGISWNSGRIGYADSVKGRFTISRDNAKNSLFLQMNSLRAKDTAVYYCARDQGYHYYDSAEHAFDIWGQGTMVTVSSGGGGSGGGGSGGGGSQSVLTQPRSVSGSPGQSVTISCTGPISGVGDYTSVSWYQHYPGKTPKLIIYDVTQRPSGVPNRFSGSKSGNTASLTISGLQADDEADYYCCSYEAPTHTYVFGTGTKLTVL
notes: Human scFv
IC50 (human CD19 [25]): > 0.2 µM
EC50 (human CD19 [23]): 0.0718 µM
